# Assay results published in the DeepSol protein solubility set.
# Assay: soluble on expression in E. coli; label from the status in PepcDB or PDB records
row,Sequence,soluble on expression in E. coli
1,MEALLKEAFLEALKATDPYRLTAKHLPPWRPDLVLAVGKAAAPMLQAALDRYGEVPYHLTLPKGQKAPGLKAVFARHPVPDEESVRAAEEVLGLLQGLSPRARVLALLSGGGSALWCAPLGISLEEKRALTEALLKSGASIHEMNAVRKHLSQIKGGRALLATRAKVHVLLLSDVPGDDPSVIASGPFHPDPTTYAEALALLDRYGLAFPGARAVLRQGVEGRLPETLKPQDPALRRLAWRLVGTNLHLLRAAQRFLRARGFRAAVLSDRFGGEARALARFHAELIEAIRAHGVPFRKPLFLLSGGEAQVRVVGRGRGGRNLEFLLALYAHLKTPLYALAADSDGLDGNSGAAGALLTPAVWEKGLDPRPFLEENDSLGFFQEAGTLLKTGPTGTNLNDFRLLLVD,soluble
2,MEANKYKIGIIGSRDIILPFSMIGFDIFPAYQEQEAINTLRKLAQSDYGVIYITEDIASMILDTIRHYDSQVVPAIILLPTHKQGLNLGLKRIEDNVEKAVGHNILLEHHHHHH,not soluble
3,MEAVQSSGRRMVHAIVWRYFEPRLRGSSVSNPGSNLVRFSEFCRGSMGFHICRLCDQASQWLSLDRSTSQWLSLDRSTVTTAFVWTDAFTTGTAGFNWDNKQPDNKDLNQPCAIVLAAHAPIHFQSYQFQPAMMDDAECAADSVASMGRTISGYVCGKPARQ,not soluble
4,MEDFGRQRPYGDGGMQIQPYHGNQGGDFRSYSASYGTRENNIYDVKKEKSIARSKSWGITDPELQRKKRVASYKMYGVEGKVKGSFRNSFRWLKQRYTQVVYGWW,not soluble
5,MEDIYYSPRYEDDEYEYRHVILPQAVSRKVPKGRLLSEAEWRRAGVQQSLGWEHYMVHNPEKHILLFRRKRHFTKADEERAKMELLRDMEVFNRAQQQTTATDEKLNAVFYEFVNKAV,not soluble
6,MEDKLITLAILTYAKAQILKNVLENEGIEAYIHNVNLIQPVISSGVRLRIKESDLPHALQIIESSAWLSEDIIKGKESSSERNKEKRKVLIPIDFSNYSLKACQFGFSFANAINSEVVLLHAYFSPIYVPTIPYGTDNFNFQIEREESVKSMIETVHNELNKLSDTIKKKVESGEFPNIKYTCILRDGIPEEEILRYAKEYNPQIIIMGTRGRSQKDIDLIGSVTAEVIERSKSFVYAIPEHTPLKTFNDIKKVAFVTNFDQRDLIAFDSLINAFKSFHFAVSFIHLSTDNDAWNEIKLAGIKDYFQKQYSKLELYYNVVKEDNILNNLDNYVKEENIDVICITNYKRNIFARLFNPSIARKMIFHANTPILVIK,not soluble
7,MEDKLVTLAILTYTKAQILKNVLENEGIETYIHNVNQIQPVVSSGVRLRIKESDLPRALKITESSTWLSESIVGEKTPKVDSKSNKILIPVDFSNYSMKACEFGFNLAKTENSEVILLHVYFTPIYASSLPYGDVFNYQIGDEESVKTIIQQVHSDLNALSDKIKEKVASGEFPDIKYSCILREGIPEEEILRYAKEQRPKVIIMGTRGKSQKDIDLIGSVTAEIIDRSRTAVLAIPENTPFKEFNEVKRIAFLTNFDQRDLIAFEAFFNTWKSFHFSVSLIHLAESKDTWNEIKLAGIKDYFQKQYPGLEIHYDVVMNDNLLKGLDKYIKDNQIDIITLTSYKRNIFARLFNPSIARKMIFHSDTPLLVING,not soluble
8,MEDKTLGLLLDVVGELFSDEISIAVSNTKEYIYYRPSKRIDLKISAGDPIKEGTIAHKAMVTNQKTSEFMNRDVFGIPYHGMAVPFSNNGKLEGCVTAIYPALTDGKSVVTLKTTDGWIPVPFSKVMYLEAKDKKTYVNAEELTGTHKYSLQEFEYLLPKDSFIRCHRSFIVNVNHIKAIYPDTHSTFLLSMDNGERVPVSQSYASYFRKLLGF,soluble
9,MEDKVDVLIIGGGASGVTSGIQSARMGANTLILEESTWLGGMLTSAGVSAVDGNYRLPAGLWGEFKNRLSDYYGGLDSLKTGWVSNVLFEPSVGNKILHEMVAAENNLKVWKQACLEEVKRTGDEWVAKVKVEGQGVKTVRAKVMIDATELGDVAKMCGLEHHHHHH,not soluble
10,MEDLRRYICDNTQKNIVMLVGRKVSDISKIARSYGNACMLRSFQGFRIVKSIYYYEDEVKISADGIVLCKDSLDELLRTVEQNNHVEIRNAVATFYDEMSSMGMNGESMNLNINYLLFQFIHLASEQDDNVNQQEILRLISESSFKTGIERGSRAHMTRFCCEYGDYLSQLRKNVSRGVIGMVEKEVRDNYATNITLKSLSEKYYVNSAYLGQLFRKKYGQSFKDYLNNYRMERAAELLLRTDKKIIQIAEEVGYHDMDYFVNRFIQVKGCTPARFRRQMQSGE,not soluble
11,MEEEEYEQIPQENPPEELSQDPVLELSGGLREKEQKTPRRLRLILMGKTGSGKSATGNSILGRDVFESKLSTRPVTKTSQRRSREWAGKELEVIDTPNILSPQVSPEVADAICQAIVLSAPGPHAVLLVTQLGRFTDEDQQVVRRLQEVFGVGVLGHTILVFTRKEDLAGGSLEDYVRETNNQALAWLDVTLARRHCGFNNRAQGEEQEAQLRELMEKVEAIMWENEGDYYSNKAYQYTQQNFRLKELQERQVSQGQGSEDVPGEESWLEGLSQIQKESEEAHRCLLGKADL,soluble
12,MEEIPEHEGYKFRVARPRTDFRGTHQYASPNAHMLIELGRHDDIWSLMYMVAESFVELPWTRCEETEVEHYMNQSTILRLFSDEKNPTRLNADMRRQLDEIDSMLKASKYYDSPNYDAVYQFFKDSMAKAKVTWDTPFDWEIGNTLSEETSKGVKRKMGGPWENPGLFFTVLQ,not soluble
13,MEEKKPVNLVLPEVENAIFIEGYPGVGLVGHIAANFLAKELDMDLIGYVDSLFIPPMSLILEGRPTPPLRFYGKNNIIIAIADIFLPPTLVNEIAKEIVNYLKKVNAEKVISLAGMGIGFFKDTFEVWGIGGSEEENKELESLGVKILKYGSITGMSGKLLWEASRAGLKSYVLLGETFGDRPDPRAAANVVEVLNKMLGLNVSVEPLLKEAEMIEEQLRRMHEQMEEARRKMERQYETMYL,not soluble
14,MEENGMKSKILIFGGTGYIGNHMVKGSLKLGHPTYVFTRPNSSKTTLLDEFQSLGAIIVKGELDEHEKLVELMKKVDVVISALAFPQILDQFKILEAIKVAGNIKRFLPSDFGVEEDRINALPPFEALIERKRMIRRAIEEANIPYTYVSANCFASYFINYLLRPYDPKDEITVYGTGEAKFAMNYEQDIGLYTIKVATDPRALNRVVIYRPSTNIITQLELISRWEKKIGKKFKKIHVPEEEIVALTKELPEPENIPIAILHCLFIDGATMSYDFKENDVEASTLYPELKFTTIDELLDIFVHDPPPPASAAF,soluble
15,MEEVEEFKYEPKSVKEIFIEMKDTVELMVDLAYASLLFGDKEIAEEVLELEERIDLLNYQLMMHSVLAARNVKEAEQVITILQIANAIEDISNAAGDLAKMVLEGVELHPVIKETILEGEEIIGKIQVYPESVIVGKTLGELDLATNTGVWIIAVRRGKRWIFGPNENFKIRAGDVLIGRGTRTSIDHLKEIARGAIRVIGNERA,soluble
16,MEEWDVPQMKKEVESLKYQLAFKREMSSKTIPELLKWIEDGIPKDPFLNPDLMKNNPWVEKAKCTIL,not soluble
17,MEFKLLQTFIEVVRQGSFSKAAENLFTTQSTVSKAIKQLEEELGITLIERFKKRNVPTTAGEIVYQRGTKLLADRDDLLKELDEIRGLKQGRLRLGISPVGSSTLFAPLFVLYRQRYPGIEVELVEHGSDKLAECLRAGEIDFAGTLLPISEEFDCQLVRSEPLVALLASGHPLATKHCISLPELKEIPFILFGSGFALHRIILDACRHAGFEPKVVAQSSQIDFMLELVAAGLGVTFLPRMIATQRHTTQIRSLLLNGSEFQWNMAMTWRRNSYLSEAAQAWLALVREVHVDN,not soluble
18,MEFMKLAIEEAKKGMEKGDGGPFGAVIVKDGKVIGSGHNMVLVTKDPTAHAEVTAIRNTCKNVDNFDLSGCQLYTSCYPCPMCMGAALWSRVDAIYYGATSQDAANIGFGDHEFHEFLQNPKSDDKRKLEQFKVDNYLEPFQLWSKKDNKELY,not soluble
19,MEGDTISRMMGSGVQMDGKILQTFEKSFVQVQNILDHNRLLINEINQNHESKIPDNLGRNVGLIRELNNNVRRVAHLYVDLSNNFSKSMEASSEGDSSEGRGNRRIRPA,soluble
20,MEGFPVRVRVDVRFRDLDPLGHVNNAVFLSYMELARIRYFQRISPDWLEEGHFVVARMEVDYLRPILLGDEVFVGVRTVGLGRSSLRMEHLVTANGESAAKGLGVLVWLEGGRPAPLPEAIRERIRALEGRPL,soluble
21,MEGIIDKENERVRRFFALLDDMEKKVERLARDNRPPFNGERFLTDRELSGMLKISRRCLQDYRDQGRIPYIQLGGKILYRQSDIERLLEENYHPALV,not soluble
22,MEGNGSVDMFSEVLENQFLQAAKLVENHLDSEIQKLDQIGEDELELLKEKRLAALRKAQQQKQEWLSKGHGEYREIGSERDFFQEVKESEKVVCHFYRDTTFRCKILDRHLAILAKKHLETKFLKLNVEKAPFLCERLRIKVIPTLALLRDGKTQDYVVGFTDLGNTDDFTTETLEWRLGCSDVINYSGNLMEPPFQSQKKFGTNFTKLEKKTIRGKKYDSDSDDD,soluble
23,MEGYPKIQYHGFIGNNRTAMLVAMNGYIDWGCLPNFNSNAVFSSILDKNKGGYFAIFPSDTTDVYVDQYYKEMTNVLVTEFVKNGKIILRLTDFMPDSEYGKISFPEVHRFVESFSEPIDITIDFKPTFNYLEHHHHHH,not soluble
24,MEHIYKLLRSFKWDCAKYLYKNTLNFKVKRLRRKKNIRVLFAVAESATWKSDCLYKAMAEHPRFTPSILVLPDEQKEKTLLKEEVDSCFNLFCRKGYACTYPYQNGKLINIRKKLKPDIIFYQKPYTFYPKSLLYYKNMNALFCYTNYAFHSLLTDWANDNEFFRLMWQNYYENESANVDLKKKFAGIFSNIVVTGLPVTDLFLTEKHEDKWKKTDKSRKRIIWAPHFSISDGGCLNYSTFLSIAEELLEFIKNTQLPVQMAFKPHPLLKSQLYNYSSWGKEKTDEYYAAWEFLPNAQLETNEYVDLFMTSDAMIHDCGSFTIEYHHTLKPVMYLVNGKEHTATMNSFAKAAYDLHYKGQTIQDIRNFIECTVLENSDYLLEKRKNFFKSYLLPPHNQSATENIIHAILGTGYYTEKKQR,not soluble
25,MEHLFGKWLPDLPAAISDGISLPMVRLLHTRSLTAALRALPHTFSVELLKLGELETECGGRLVREVLLKLDRIPVVEARSECRIGSAFWQNILDCGTRPLGERLFQADLEGARSAFEFAVAGEGCGRYFAARRSRFSRHGEEMLLTEYFLPELKRFIG,not soluble
26,MEHWYCTNMVGVPVGLIGSTAFNRCLRRITIHGTRETHPGLFRLLAACEYPATASEVFEHYMELEFGLAPGAHEPTQARYPTSYLDLLRGWGVESDCPKAAVLKGWVESRFGLVPTFHKQRLGLFPSSAWATYLQEKTDVRFHNNCIFQQFDLLYEYCQWSIRRFKTPGPRFVRLWRGTNDVEQQLVEGDARQRLCTVRLNNLVSFSDSKERAEEFGDWVLETEVPTVKLLFFPGLLQRQVLGYEGEFLVIGGNYKVRAYHGWFLEHHHHHH,soluble
27,MEILASRMLLRPADYQRSLSFYRDQIGLAIAREYGAGTVFFAGQSLLELAGYGEPDHSRGPFPGALWLQVRDLEATQTELVSRGVSIAREPRREPWGLHEMHVTDPDGITLIFVEVPEGHPLRTDTRA,soluble
